Measured values from US20150344570A1 (published 2015).

T1: FcγRIIb extracellular domain with C-terminal His tag (human, UniProt P31994 43-217)
T1 construct: extracellular domain; also called FcgRIIb; 2b; not shown: His tag at the C terminus
T1 sequence (looked up): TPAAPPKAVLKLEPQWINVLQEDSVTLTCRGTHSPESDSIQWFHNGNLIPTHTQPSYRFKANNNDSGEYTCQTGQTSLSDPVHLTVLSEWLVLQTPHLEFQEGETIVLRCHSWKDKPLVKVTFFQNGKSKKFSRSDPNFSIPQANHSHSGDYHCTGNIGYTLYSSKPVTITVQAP

B1: GpH7-B3 variant K334_14T/GpL16-k0 (antibody, human IgG1, kappa)
heavy: not shown
light: DIVMTQSPLSLPVTPGEPASISCQASESLVHSNRNTYLHWYLQKPGQSPQLLIYKVSNRFSGVPDRFSGSGSGTDFTLKISRVEAEDVGVYYCSQNTHVPPTFGQGTKVEIERTVAAPSVFIFPPSDEQLKSGTASVVCLLNNFYPREAKVQWKVDNALQSGNSQESVTEQDSKDSTYSLSSTLTLSKADYEKHKVYACEVTHQGLSSPVTKSFNRGEC
notes: also called Ho Ab K334_14T
B2: GpH7-B3 variant L235_20W/GpL16-k0 (antibody, human IgG1, kappa)
heavy: not shown
light: B1 light
notes: also called Ho Ab L235_20W
B3: GpH7-B3 variant L328_02A/GpL16-k0 (antibody, human IgG1, kappa)
heavy: not shown
light: B1 light
notes: also called Ho Ab L328_02A
B4: GpH7-B3 variant L328_13S/GpL16-k0 (antibody, human IgG1, kappa)
heavy: not shown
light: B1 light
notes: also called Ho Ab L328_13S
B5: GpH7-B3 variant P238_04F/GpL16-k0 (antibody, human IgG1, kappa)
heavy: not shown
light: B1 light
notes: also called Ho Ab P238_04F
B6: GpH7-B3 variant P238_09D/GpL16-k0 (antibody, human IgG1, kappa)
heavy: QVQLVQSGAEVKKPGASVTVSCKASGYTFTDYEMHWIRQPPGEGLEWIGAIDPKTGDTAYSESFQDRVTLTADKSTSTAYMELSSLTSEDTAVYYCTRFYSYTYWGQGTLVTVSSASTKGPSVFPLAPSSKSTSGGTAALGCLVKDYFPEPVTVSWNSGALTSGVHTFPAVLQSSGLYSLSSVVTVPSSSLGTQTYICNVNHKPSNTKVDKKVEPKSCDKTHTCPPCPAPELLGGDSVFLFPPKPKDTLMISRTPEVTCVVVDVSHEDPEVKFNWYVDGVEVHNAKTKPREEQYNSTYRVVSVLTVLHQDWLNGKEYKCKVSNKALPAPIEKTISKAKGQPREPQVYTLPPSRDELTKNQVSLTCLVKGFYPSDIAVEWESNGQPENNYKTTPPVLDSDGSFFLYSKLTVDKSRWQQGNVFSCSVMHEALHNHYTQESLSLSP
light: B1 light
notes: also called Ho Ab P238_09D
B7: GpH7-B3 variant P238_15Y/GpL16-k0 (antibody, human IgG1, kappa)
heavy: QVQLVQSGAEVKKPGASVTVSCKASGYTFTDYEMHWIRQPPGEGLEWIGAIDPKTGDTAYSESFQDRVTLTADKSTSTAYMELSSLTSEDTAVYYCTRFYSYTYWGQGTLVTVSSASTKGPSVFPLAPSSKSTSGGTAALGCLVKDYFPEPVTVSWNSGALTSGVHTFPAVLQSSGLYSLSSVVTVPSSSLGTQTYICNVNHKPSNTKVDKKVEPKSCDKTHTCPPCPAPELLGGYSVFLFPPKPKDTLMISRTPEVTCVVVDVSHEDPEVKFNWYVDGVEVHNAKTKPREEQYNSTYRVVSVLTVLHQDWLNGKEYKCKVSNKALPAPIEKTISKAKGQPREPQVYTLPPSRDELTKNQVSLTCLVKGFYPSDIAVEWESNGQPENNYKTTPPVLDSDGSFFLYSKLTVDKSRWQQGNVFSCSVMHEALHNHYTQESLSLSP
light: B1 light
notes: also called Ho Ab P238_15Y
B8: GpH7-B3 variant P331_15Y/GpL16-k0 (antibody, human IgG1, kappa)
heavy: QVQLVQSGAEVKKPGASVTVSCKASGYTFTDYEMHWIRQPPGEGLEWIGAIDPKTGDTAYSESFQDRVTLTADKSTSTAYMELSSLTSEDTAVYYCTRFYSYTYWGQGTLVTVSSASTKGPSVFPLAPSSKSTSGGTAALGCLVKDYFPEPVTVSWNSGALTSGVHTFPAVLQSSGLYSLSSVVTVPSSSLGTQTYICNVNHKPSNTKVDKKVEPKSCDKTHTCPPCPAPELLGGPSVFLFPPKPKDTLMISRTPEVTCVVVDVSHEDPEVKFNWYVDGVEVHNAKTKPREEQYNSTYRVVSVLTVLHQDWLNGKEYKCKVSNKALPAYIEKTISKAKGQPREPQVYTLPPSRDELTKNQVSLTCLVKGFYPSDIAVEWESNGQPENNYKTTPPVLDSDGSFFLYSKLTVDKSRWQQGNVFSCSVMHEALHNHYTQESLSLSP
light: B1 light
notes: also called Ho Ab P331_15Y
B9: GpH7-B3 variant P331_16H/GpL16-k0 (antibody, human IgG1, kappa)
heavy: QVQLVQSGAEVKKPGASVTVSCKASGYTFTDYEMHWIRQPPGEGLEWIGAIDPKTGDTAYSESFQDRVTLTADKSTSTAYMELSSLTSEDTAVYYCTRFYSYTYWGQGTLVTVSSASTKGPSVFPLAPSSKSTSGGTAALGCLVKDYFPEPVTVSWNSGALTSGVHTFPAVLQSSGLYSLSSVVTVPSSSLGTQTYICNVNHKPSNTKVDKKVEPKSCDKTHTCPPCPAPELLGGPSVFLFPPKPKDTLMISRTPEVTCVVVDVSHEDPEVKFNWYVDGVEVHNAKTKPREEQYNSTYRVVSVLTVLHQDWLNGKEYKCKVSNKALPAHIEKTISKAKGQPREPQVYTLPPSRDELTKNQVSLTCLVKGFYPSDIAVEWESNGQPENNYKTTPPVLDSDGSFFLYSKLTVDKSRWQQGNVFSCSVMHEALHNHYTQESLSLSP
light: B1 light
notes: also called Ho Ab P331_16H
B10: GpH7-B3 variant P331_20W/GpL16-k0 (antibody, human IgG1, kappa)
heavy: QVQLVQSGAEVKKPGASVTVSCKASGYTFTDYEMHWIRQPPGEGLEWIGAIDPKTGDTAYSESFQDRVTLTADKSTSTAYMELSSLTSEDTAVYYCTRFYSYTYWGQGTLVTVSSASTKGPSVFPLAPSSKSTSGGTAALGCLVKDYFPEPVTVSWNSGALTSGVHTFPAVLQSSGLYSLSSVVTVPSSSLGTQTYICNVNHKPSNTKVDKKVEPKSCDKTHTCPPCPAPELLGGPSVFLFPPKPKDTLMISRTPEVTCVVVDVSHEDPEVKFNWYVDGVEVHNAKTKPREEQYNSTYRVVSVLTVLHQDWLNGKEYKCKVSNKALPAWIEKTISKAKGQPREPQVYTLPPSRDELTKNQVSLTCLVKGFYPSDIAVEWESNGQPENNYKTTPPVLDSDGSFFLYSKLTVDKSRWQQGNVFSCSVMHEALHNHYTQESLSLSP
light: B1 light
notes: also called Ho Ab P331_20W
B11: GpH7-B3 variant S239_03V/GpL16-k0 (antibody, human IgG1, kappa)
heavy: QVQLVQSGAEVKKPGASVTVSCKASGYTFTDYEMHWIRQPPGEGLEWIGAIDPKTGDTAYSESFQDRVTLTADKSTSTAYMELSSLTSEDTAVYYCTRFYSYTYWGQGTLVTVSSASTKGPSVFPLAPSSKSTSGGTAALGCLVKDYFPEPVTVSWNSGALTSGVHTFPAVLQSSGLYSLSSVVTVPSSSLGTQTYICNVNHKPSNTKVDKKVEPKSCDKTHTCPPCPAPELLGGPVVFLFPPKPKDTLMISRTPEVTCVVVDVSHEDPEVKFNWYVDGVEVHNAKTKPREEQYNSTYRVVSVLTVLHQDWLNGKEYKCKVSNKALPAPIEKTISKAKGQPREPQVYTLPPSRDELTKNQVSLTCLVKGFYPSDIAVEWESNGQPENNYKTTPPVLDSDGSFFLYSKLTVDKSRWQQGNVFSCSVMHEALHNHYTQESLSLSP
light: B1 light
notes: also called Ho Ab S239_03V
B12: GpH7-B3 variant S239_10E/GpL16-k0 (antibody, human IgG1, kappa)
heavy: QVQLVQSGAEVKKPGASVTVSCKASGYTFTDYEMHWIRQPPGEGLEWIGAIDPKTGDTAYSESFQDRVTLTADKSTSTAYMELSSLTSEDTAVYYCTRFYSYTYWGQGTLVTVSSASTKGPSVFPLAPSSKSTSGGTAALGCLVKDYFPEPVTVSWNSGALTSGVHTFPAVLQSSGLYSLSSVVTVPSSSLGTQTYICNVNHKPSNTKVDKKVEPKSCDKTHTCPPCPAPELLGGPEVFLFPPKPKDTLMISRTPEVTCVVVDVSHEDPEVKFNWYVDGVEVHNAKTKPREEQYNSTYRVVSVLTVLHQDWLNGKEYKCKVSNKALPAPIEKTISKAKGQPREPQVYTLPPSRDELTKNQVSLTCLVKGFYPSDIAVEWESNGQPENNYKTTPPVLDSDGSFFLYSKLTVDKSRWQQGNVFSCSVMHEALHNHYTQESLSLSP
light: B1 light
notes: also called Ho Ab S239_10E
B13: GpH7-B3 variant S267_06M/GpL16-k0 (antibody, human IgG1, kappa)
heavy: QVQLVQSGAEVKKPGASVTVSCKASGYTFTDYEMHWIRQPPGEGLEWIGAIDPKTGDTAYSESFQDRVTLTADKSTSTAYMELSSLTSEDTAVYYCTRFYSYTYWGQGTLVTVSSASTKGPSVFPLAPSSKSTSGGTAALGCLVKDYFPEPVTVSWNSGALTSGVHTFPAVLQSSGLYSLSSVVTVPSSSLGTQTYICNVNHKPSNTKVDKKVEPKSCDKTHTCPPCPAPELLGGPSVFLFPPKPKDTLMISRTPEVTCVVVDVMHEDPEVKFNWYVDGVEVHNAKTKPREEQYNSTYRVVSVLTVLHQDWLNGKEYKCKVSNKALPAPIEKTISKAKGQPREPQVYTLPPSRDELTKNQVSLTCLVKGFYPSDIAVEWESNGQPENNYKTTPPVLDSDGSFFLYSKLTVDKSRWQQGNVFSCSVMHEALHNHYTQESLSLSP
light: B1 light
notes: also called Ho Ab S267_06M
B14: GpH7-B3 variant S267_19Q/GpL16-k0 (antibody, human IgG1, kappa)
heavy: not shown
light: B1 light
notes: also called Ho Ab S267_19Q
B15: GpH7-B3 variant S324_06M/GpL16-k0 (antibody, human IgG1, kappa)
heavy: not shown
light: B1 light
notes: also called Ho Ab S324_06M
B16: GpH7-B3 variant S337_16H/GpL16-k0 (antibody, human IgG1, kappa)
heavy: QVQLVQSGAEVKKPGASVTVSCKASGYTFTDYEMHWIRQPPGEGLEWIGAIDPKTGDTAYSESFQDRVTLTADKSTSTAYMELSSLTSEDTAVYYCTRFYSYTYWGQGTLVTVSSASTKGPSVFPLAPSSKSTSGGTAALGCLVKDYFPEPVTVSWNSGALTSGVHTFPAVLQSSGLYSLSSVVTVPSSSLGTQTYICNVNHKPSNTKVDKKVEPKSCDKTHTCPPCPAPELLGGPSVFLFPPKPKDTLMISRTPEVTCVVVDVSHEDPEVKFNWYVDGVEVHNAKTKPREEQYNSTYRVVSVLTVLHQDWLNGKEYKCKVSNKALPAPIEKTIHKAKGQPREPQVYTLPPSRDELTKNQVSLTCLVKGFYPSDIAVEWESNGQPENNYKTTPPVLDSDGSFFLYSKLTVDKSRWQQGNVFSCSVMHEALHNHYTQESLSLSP
light: B1 light
notes: also called Ho Ab S337_16H
B17: GpH7-B3 variant T335_07I/GpL16-k0 (antibody, human IgG1, kappa)
heavy: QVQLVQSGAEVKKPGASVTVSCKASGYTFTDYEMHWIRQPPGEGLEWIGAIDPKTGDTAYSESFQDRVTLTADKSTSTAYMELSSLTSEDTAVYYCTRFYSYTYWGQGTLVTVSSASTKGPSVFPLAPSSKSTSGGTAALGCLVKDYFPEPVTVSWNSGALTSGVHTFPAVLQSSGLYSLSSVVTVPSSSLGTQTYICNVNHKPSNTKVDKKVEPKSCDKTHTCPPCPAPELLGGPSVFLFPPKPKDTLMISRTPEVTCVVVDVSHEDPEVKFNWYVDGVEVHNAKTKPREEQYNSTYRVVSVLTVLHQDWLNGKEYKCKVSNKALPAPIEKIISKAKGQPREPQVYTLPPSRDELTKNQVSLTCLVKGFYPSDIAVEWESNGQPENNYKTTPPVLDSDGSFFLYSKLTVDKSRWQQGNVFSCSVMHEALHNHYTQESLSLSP
light: B1 light
notes: also called Ho Ab T335_07I
B18: GpH7-B3 variant T335_10E/GpL16-k0 (antibody, human IgG1, kappa)
heavy: not shown
light: B1 light
notes: also called Ho Ab T335_10E
B19: GpH7-B3 variant T335_15Y/GpL16-k0 (antibody, human IgG1, kappa)
heavy: not shown
light: B1 light
notes: also called Ho Ab T335_15Y
B20: GpH7-B3 variant V266_06M/GpL16-k0 (antibody, human IgG1, kappa)
heavy: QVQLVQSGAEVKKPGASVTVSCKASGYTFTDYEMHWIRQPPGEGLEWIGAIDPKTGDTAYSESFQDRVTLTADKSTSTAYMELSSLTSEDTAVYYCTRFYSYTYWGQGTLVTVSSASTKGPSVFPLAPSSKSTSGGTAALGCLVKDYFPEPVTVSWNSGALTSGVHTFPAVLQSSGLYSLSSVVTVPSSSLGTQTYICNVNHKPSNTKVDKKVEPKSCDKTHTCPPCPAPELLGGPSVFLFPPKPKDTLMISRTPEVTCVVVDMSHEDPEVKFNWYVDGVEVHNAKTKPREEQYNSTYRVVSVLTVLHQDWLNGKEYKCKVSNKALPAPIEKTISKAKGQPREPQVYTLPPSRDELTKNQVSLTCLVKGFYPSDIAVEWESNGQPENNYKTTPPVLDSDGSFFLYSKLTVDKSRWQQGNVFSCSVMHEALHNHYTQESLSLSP
light: B1 light
notes: also called Ho Ab V266_06M
B21: GpH7-B3 variant Y296_20W/GpL16-k0 (antibody, human IgG1, kappa)
heavy: not shown
light: B1 light
notes: also called Ho Ab Y296_20W
B22: GpH7-A5/GpH7-B3 variant K326_07I/GpL16-k0 (antibody, human IgG1, kappa)
heavy 1: not shown
heavy 2: not shown
light: B1 light
notes: also called He Ab K326_07I
B23: GpH7-A5/GpH7-B3 variant A327_09D/GpL16-k0 (antibody, human IgG1, kappa)
heavy 1: not shown
heavy 2: not shown
light: B1 light
notes: also called He Ab A327_09D
B24: GpH7-A5/GpH7-B3 variant A327_10E/GpL16-k0 (antibody, human IgG1, kappa)
heavy 1: not shown
heavy 2: not shown
light: B1 light
notes: also called He Ab A327_10E
B25: GpH7-A5/GpH7-B3 variant A330_01G/GpL16-k0 (antibody, human IgG1, kappa)
heavy 1: not shown
heavy 2: not shown
light: B1 light
notes: also called He Ab A330_01G
B26: GpH7-A5/GpH7-B3 variant G236_09D/GpL16-k0 (antibody, human IgG1, kappa)
heavy 1: not shown
heavy 2: not shown
light: B1 light
notes: also called He Ab G236_09D
B27: GpH7-A5/GpH7-B3 variant G236_10E/GpL16-k0 (antibody, human IgG1, kappa)
heavy 1: not shown
heavy 2: not shown
light: B1 light
notes: also called He Ab G236_10E
B28: GpH7-A5/GpH7-B3 variant G237_04F/GpL16-k0 (antibody, human IgG1, kappa)
heavy 1: not shown
heavy 2: not shown
light: B1 light
notes: also called He Ab G237_04F
B29: GpH7-A5/GpH7-B3 variant G237_20W/GpL16-k0 (antibody, human IgG1, kappa)
heavy 1: not shown
heavy 2: not shown
light: B1 light
notes: also called He Ab G237_20W
B30: GpH7-A5/GpH7-B3 variant H268_01G/GpL16-k0 (antibody, human IgG1, kappa)
heavy 1: not shown
heavy 2: not shown
light: B1 light
notes: also called He Ab H268_01G
B31: GpH7-A5/GpH7-B3 variant H268_09D/GpL16-k0 (antibody, human IgG1, kappa)
heavy 1: not shown
heavy 2: not shown
light: B1 light
notes: also called He Ab H268_09D
B32: GpH7-A5/GpH7-B3 variant H268_10E/GpL16-k0 (antibody, human IgG1, kappa)
heavy 1: not shown
heavy 2: not shown
light: B1 light
notes: also called He Ab H268_10E
B33: GpH7-A5/GpH7-B3 variant H268_13S/GpL16-k0 (antibody, human IgG1, kappa)
heavy 1: not shown
heavy 2: not shown
light: B1 light
notes: also called He Ab H268_13S
B34: GpH7-A5/GpH7-B3 variant H268_18N/GpL16-k0 (antibody, human IgG1, kappa)
heavy 1: not shown
heavy 2: not shown
light: B1 light
notes: also called He Ab H268_18N
B35: GpH7-A5/GpH7-B3 variant I332_04F/GpL16-k0 (antibody, human IgG1, kappa)
heavy 1: not shown
heavy 2: not shown
light: B1 light
notes: also called He Ab I332_04F
B36: GpH7-A5/GpH7-B3 variant I332_06M/GpL16-k0 (antibody, human IgG1, kappa)
heavy 1: not shown
heavy 2: not shown
light: B1 light
notes: also called He Ab I332_06M
B37: GpH7-A5/GpH7-B3 variant I332_09D/GpL16-k0 (antibody, human IgG1, kappa)
heavy 1: not shown
heavy 2: not shown
light: B1 light
notes: also called He Ab I332_09D
B38: GpH7-A5/GpH7-B3 variant I332_10E/GpL16-k0 (antibody, human IgG1, kappa)
heavy 1: not shown
heavy 2: not shown
light: B1 light
notes: also called He Ab I332_10E
B39: GpH7-A5/GpH7-B3 variant I332_14T/GpL16-k0 (antibody, human IgG1, kappa)
heavy 1: not shown
heavy 2: not shown
light: B1 light
notes: also called He Ab I332_14T
B40: GpH7-A5/GpH7-B3 variant I332_15Y/GpL16-k0 (antibody, human IgG1, kappa)
heavy 1: not shown
heavy 2: not shown
light: B1 light
notes: also called He Ab I332_15Y
B41: GpH7-A5/GpH7-B3 variant I336_08L/GpL16-k0 (antibody, human IgG1, kappa)
heavy 1: not shown
heavy 2: not shown
light: B1 light
notes: also called He Ab I336_08L
B42: GpH7-A5/GpH7-B3 variant K326_03V/GpL16-k0 (antibody, human IgG1, kappa)
heavy 1: not shown
heavy 2: not shown
light: B1 light
notes: also called He Ab K326_03V
B43: GpH7-A5/GpH7-B3 variant K326_04F/GpL16-k0 (antibody, human IgG1, kappa)
heavy 1: not shown
heavy 2: not shown
light: B1 light
notes: also called He Ab K326_04F
B44: GpH7-A5/GpH7-B3 variant K326_06M/GpL16-k0 (antibody, human IgG1, kappa)
heavy 1: not shown
heavy 2: not shown
light: B1 light
notes: also called He Ab K326_06M
B45: GpH7-A5/GpH7-B3 variant K326_08L/GpL16-k0 (antibody, human IgG1, kappa)
heavy 1: not shown
heavy 2: not shown
light: B1 light
notes: also called He Ab K326_08L
B46: GpH7-A5/GpH7-B3 variant K326_09D/GpL16-k0 (antibody, human IgG1, kappa)
heavy 1: not shown
heavy 2: not shown
light: B1 light
notes: also called He Ab K326_09D
B47: GpH7-A5/GpH7-B3 variant K326_10E/GpL16-k0 (antibody, human IgG1, kappa)
heavy 1: not shown
heavy 2: not shown
light: B1 light
notes: also called He Ab K326_10E
B48: GpH7-A5/GpH7-B3 variant K326_14T/GpL16-k0 (antibody, human IgG1, kappa)
heavy 1: not shown
heavy 2: not shown
light: B1 light
notes: also called He Ab K326_14T
B49: GpH7-A5/GpH7-B3 variant K326_15Y/GpL16-k0 (antibody, human IgG1, kappa)
heavy 1: not shown
heavy 2: not shown
light: B1 light
notes: also called He Ab K326_15Y
B50: GpH7-A5/GpH7-B3 variant K326_16H/GpL16-k0 (antibody, human IgG1, kappa)
heavy 1: not shown
heavy 2: not shown
light: B1 light
notes: also called He Ab K326_16H
B51: GpH7-A5/GpH7-B3 variant K326_19Q/GpL16-k0 (antibody, human IgG1, kappa)
heavy 1: not shown
heavy 2: not shown
light: B1 light
notes: also called He Ab K326_19Q
B52: GpH7-A5/GpH7-B3 variant K326_20W/GpL16-k0 (antibody, human IgG1, kappa)
heavy 1: not shown
heavy 2: not shown
light: B1 light
notes: also called He Ab K326_20W
B53: GpH7-A5/GpH7-B3 variant K334_02A/GpL16-k0 (antibody, human IgG1, kappa)
heavy 1: not shown
heavy 2: not shown
light: B1 light
notes: also called He Ab K334_02A
B54: GpH7-A5/GpH7-B3 variant K334_03V/GpL16-k0 (antibody, human IgG1, kappa)
heavy 1: not shown
heavy 2: not shown
light: B1 light
notes: also called He Ab K334_03V
B55: GpH7-A5/GpH7-B3 variant K334_04F/GpL16-k0 (antibody, human IgG1, kappa)
heavy 1: not shown
heavy 2: not shown
light: B1 light
notes: also called He Ab K334_04F

The binders below were run against T1, FcγRIIb extracellular domain with … (assay: SPR, relative binding, HoCon Ab = 100).
Procedure: (§1) Analysis of interaction between objective antibody and the FcγR was carried out using Biacore T100 (GE Healthcare). HBS-EP+ (GE Healthcare) was used as the running buffer, and the measurement temperature was set to 25° C. Chips produced by immobilizing the antigen peptide by the amine coupling method to a Series S Sencor Chip CM5 (GE Healthcare), or alternatively, chips produced by allowing preliminarily biotinylated antigen peptides to interact with and immobilize onto a Series S Sensor Chip SA (certified) (GE Healthcare) were used. Antibodies of interest were captured onto an antigen peptide-immobilized chip, and allowed to interact to each FcγR diluted with running buffer. To regenerate and repeatedly use the chip, the antibodies captured on the chip were washed off by reacting 10 mM glycine-HCl, pH 1.5.

Point of comparison: B18, Ho/Con_2b 108 % of control. Against it:
- B1 — higher, 138 % of control
- B2 — higher, 116 % of control
- B3 — higher, 117 % of control
- B4 — higher, 147 % of control
- B5 — higher, 209 % of control
- B6 — higher, 207 % of control
- B7 — higher, 114 % of control
- B8 — higher, 111 % of control
- B9 — lower, 100 % of control
- B10 — higher, 111 % of control
- B11 — the same, 108 % of control
- B12 — higher, 175 % of control
- B13 — higher, 187 % of control
- B14 — higher, 185 % of control
- B15 — lower, 104 % of control
- B16 — lower, 103 % of control
- B17 — lower, 104 % of control
- B19 — lower, 104 % of control
- B20 — higher, 231 % of control
- B21 — lower, 103 % of control

Each binder was assayed against T1, FcγRIIb extracellular domain with … (assay: SPR, relative binding, HeCon Ab = 100).
Procedure: as §1

Point of comparison: B31, He/Con_2b 239 % of control. Against it:
- B22 — lower, 199 % of control
- B23 — lower, 172 % of control
- B24 — lower, 140 % of control
- B25 — lower, 104 % of control
- B26 — lower, 167 % of control
- B27 — lower, 110 % of control
- B28 — lower, 149 % of control
- B29 — lower, 193 % of control
- B30 — lower, 144 % of control
- B32 — lower, 230 % of control
- B33 — lower, 160 % of control
- B34 — lower, 156 % of control
- B35 — lower, 104 % of control
- B36 — lower, 105 % of control
- B37 — lower, 147 % of control
- B38 — lower, 142 % of control
- B39 — lower, 106 % of control
- B40 — lower, 101 % of control
- B41 — lower, 107 % of control
- B42 — lower, 175 % of control
- B43 — lower, 155 % of control
- B44 — lower, 165 % of control
- B45 — lower, 177 % of control
- B46 — lower, 193 % of control
- B47 — lower, 200 % of control
- B48 — lower, 150 % of control
- B49 — lower, 159 % of control
- B50 — lower, 119 % of control
- B51 — lower, 139 % of control
- B52 — lower, 148 % of control
- B53 — lower, 108 % of control
- B54 — lower, 125 % of control
- B55 — lower, 111 % of control
